Measured values reported in the PETadex activity labels (doi:10.1042/bj20021862).
Numbering of substitutions follows the chain as printed.

B1: unnamed (protein)
chain: MRPPWYPLHTPSLAFPLLFLLLSLLGGGARAEGREDPQLLVRVRGGQLRGIRLKAPGGPVSAFLGIPFAEPPVGSRRFMPPEPKRPWSGVLDATTFQNVCYQYVDTLYPGFEGTEMWNPNRELSEDCLYLNVWTPYPRPASPTPVLIWIYGGGFYSGAASLDVYDGRFLAQVEGAVLVSMNYRVGTFGFLALPGSREAPGNVGLLDQRLALQWVQENIAAFGGDPMSVTLFGESAGAASVGMHILSLPSRSLFHRAVLQSGTPNGPWATVSAGEARRRATLLARLVGCPPGGAGGNDTELIACLRTRPAQDLVDHEWHVLPQESIFRFSFVPVVDGDFLSDTPEALINTGDFQDLQVLVGVVKDEGSYFLVYGVPGFSKDNESLISRAQFLAGVRIGVPQASDLAAEAVVLHYTDWLHPEDPTHLRDAMSAVVGDHNVVCPVAQLAGRLAAQGARVYAYIFEHRASTLTWPLWMGVPHGYEIEFIFGLPLDPSLNYTTEERIFAQRLMKYWTNFARTGDPNDPRDSKSPQWPPYTTAAQQYVSLNLKPLEVRRGLRAQTCAFWNRFLPKLLSATDTLDEAERQWKAEFHRWSSYMVHWKNQFDHYSKQERCSDL
B2: unnamed (protein)
chain: B1 chain with F326L, F328A, Y368A
B3: unnamed (protein)
chain: B1 chain with E233Q, F326L, Y368A
B4: unnamed (protein)
chain: B1 chain with F328L, Y368A
B5: unnamed (protein)
chain: B1 chain with F328I, Y368A

These proteins were tested on Acetylcholine. Details: pH 7; 22 °C.
B1 showed a Km of 47 µM, a kcat of 2500 s⁻¹ and a kcat/Km of 5.32e+07 M⁻¹ s⁻¹. With B2 the Km was 190 µM, the kcat was 183 s⁻¹ and the kcat/Km was 965000 M⁻¹ s⁻¹. B3 showed a Km of 100 µM, a kcat of 167 s⁻¹ and a kcat/Km of 1.67e+06 M⁻¹ s⁻¹. B4 was tested, and the Km was 100 µM, the kcat was 667 s⁻¹ and the kcat/Km was 6.67e+06 M⁻¹ s⁻¹. With B5 the Km was 340 µM, the kcat was 233 s⁻¹ and the kcat/Km was 686000 M⁻¹ s⁻¹.
